Test results taken from paper PMC11580933 (bioRxiv, 2024).
Where no end group is shown, it is not given here.

T1: KTN1(991–1357) (human, UniProt Q86UP2 991-1357)
T1 sequence (looked up): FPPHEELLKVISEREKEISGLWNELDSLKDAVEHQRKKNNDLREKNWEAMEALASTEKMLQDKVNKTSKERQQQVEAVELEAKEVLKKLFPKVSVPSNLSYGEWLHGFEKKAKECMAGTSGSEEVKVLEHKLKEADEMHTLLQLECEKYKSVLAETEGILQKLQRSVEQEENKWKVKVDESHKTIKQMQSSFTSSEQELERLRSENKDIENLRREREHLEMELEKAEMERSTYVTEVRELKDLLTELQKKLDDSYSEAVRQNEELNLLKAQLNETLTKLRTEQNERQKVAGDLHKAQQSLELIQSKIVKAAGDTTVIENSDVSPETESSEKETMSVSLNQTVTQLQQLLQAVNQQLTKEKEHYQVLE


Columns and labels:
CDR2(1–146) = CDR2(1–146) (human, UniProt Q01850 1-146); test: SEC
KTN1(991–1357) [1] = molecular target: T1, KTN1(991–1357); test: pull-down
KTN1(991–1357) [2] = molecular target: T1, KTN1(991–1357); test: SEC

Chain of CDR2(1–146) (Q01850 1-146): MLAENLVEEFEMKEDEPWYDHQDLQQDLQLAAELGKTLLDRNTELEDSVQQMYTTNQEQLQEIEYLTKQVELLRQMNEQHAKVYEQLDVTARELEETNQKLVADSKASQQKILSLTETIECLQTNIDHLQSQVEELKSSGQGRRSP

binding result (KTN1(991–1357) [2])	Binder	also measured
	GST::DLIC1(388–523) (domain or fragment, human, UniProt Q9Y6G9 388-523, looked up) PTAAGRPVDASPRVPGGSPRTPNRSVSSNVASVSPIPAGSKKIDPNMKAGATSEGVLANFFNSLLSKKTGSPGGPGVSGGSPAGGAGGGSSGLPPSTKKSGQKPVLDVHAELDRITRKPVTVSPTTPTSPTEGEAS	binding result (CDR2(1–146)): binds
	GST::KIF5C(807–956) (domain or fragment) not shown	binding result (KTN1(991–1357) [1]): binds
binds	{GST}-NGPVAGASRQENGASVILRDIARARENIQKSLAGSSG (domain or fragment, human, UniProt P29692 30-66, looked up) [GST::eEF1Bβ(30–66)]	
binds	EPVSSPTTPPEYKALFKEIFSCIKKTKQEIDEQRTKYRSLSSHS (domain or fragment, human, UniProt Q01850 411-454, looked up) [GST::CDR2(411–454)]	
